Assay results from article PMC3392526.
Where two headings read alike, the source gives them in different places.

Key:
Assay in all cases: crystal structure
[1] = target: T1, ALKBH2-dN55 crosslinking mutant (Homo sapiens, UniProt Q6NS38 56-261, C67S;C165S;G169C;C192S)
T1 sequence: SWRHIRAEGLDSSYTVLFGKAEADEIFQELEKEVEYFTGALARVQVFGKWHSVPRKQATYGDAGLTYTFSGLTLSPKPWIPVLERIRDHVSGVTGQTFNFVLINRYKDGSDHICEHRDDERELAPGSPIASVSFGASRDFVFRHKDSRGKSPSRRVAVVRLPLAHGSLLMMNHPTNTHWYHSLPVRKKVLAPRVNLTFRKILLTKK

[2] = target: T1, ALKBH2-dN55 crosslinking mutant; remark: listed apart in the source
[3] = target: T1, ALKBH2-dN55 crosslinking mutant; remark: listed apart in the source
[4] = target: T1, ALKBH2-dN55 crosslinking mutant; remark: listed apart in the source

B1: CG DNA (dsDNA)
DNA 1: CTGTCATCACTGCG
DNA 2: TCGCAGTGATGACA
modifications: C* (position 10 of strand 1): disulfide crosslinking cytosine
- binding result [1]: binds

B2: CI DNA (dsDNA)
DNA 1: ATGTATCACTGCG
DNA 2: TCGCAGTGATACA
modifications: C* (position 9 of strand 1): disulfide crosslinking cytosine; strand 2 position 8 is inosine (written G)
- binding result [2]: binds

B3: AT DNA (dsDNA)
DNA 1: ATGTATAACTGCG
DNA 2: TCGCAGTTATACA
modifications: C* (position 9 of strand 1): disulfide crosslinking cytosine
- binding result [3]: binds

B4: 3-meC DNA (dsDNA)
DNA 1: CTGTCTCACTGCG
DNA 2: TCGCAGTGAGACA
modifications: 3-methylcytosine at position 7 of strand 1 (written C); C* (position 9): disulfide crosslinking cytosine
- binding result [4]: binds

B5: eA DNA (dsDNA)
DNA 1: CTGTCAAACTGCG
DNA 2: TCGCAGTTAGACA
modifications: 1,N6-ethenoadenine at position 7 of strand 1 (written A); no C* printed in this strand
- binding result [4]: binds
